Experimental data: patent publication US20240043537A1 (MacroGenics, published 2024)

Tests used:
[1] = target: CD3 on T-cells (UniProt P07766 23-207); experiment: cell-based or functional assay
[2] = target: T1, CD3 (as used for the BIACORE kinetics of Table 11) (UniProt P07766 23-126); experiment: SPR (BIACORE)
T1 construct: CD3 mAb 1 is described as an anti-human CD3 antibody
Description: Variants of the CD123×CD3 DART-A-type diabody (designated DART-A-WT; amino acid sequences provided above) were generated comprising the VH and VL Domains of the identified scFvs. Thus, a panel of DART-A-type diabodies, designated DART-A-M1-DART-A-M26, comprising vCD3-Binding Domains (such vCD3-Binding Domains being respectively designated “CD3 mAb 1 M1-CD3 mAb 1 M26”) were generated. The CD3-binding kinetics of DART-A-M1-DART-A-M26 were measured by BIACORE® and compared to DART-A-WT. Table 11 summarizes the CD3-binding kinetics of DART-A-WT and the DART-A-type diabodies comprising the vCD3-Binding Domains of CD3 mAb 1 M1-CD3 mAb 1 M26, ranked by kₐ (R denotes kₐ, kd, or kD ratio of variant DART-A-type diabody (comprising a vCD3-Binding Domain) to DART-A-WT (comprising the rCD3-Binding Domain of CD3 mAb 1)).

CD3 on T-cells, sequence (P07766 23-207): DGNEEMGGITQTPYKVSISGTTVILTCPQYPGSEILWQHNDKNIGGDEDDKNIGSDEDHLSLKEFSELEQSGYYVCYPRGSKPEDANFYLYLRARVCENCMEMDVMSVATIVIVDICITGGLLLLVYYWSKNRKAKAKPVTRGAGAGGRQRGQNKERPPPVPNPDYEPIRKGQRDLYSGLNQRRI
T1 sequence (P07766 23-126): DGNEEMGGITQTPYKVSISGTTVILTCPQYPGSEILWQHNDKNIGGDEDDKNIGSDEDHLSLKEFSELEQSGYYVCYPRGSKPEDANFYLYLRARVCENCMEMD

Binder	EC50 of cytolysis at 18 hours (CTL assay, Pan-T-cells and MOLM-13, E:T = 5:1) [1]	EC50 of cytolysis at 42 hours (CTL assay, Pan-T-cells and MOLM-13, E:T = 5:1) [1]	R: ratio of 18 hour EC50 to DART-A-WT (CTL assay, Pan-T-cells and MOLM-13, E:T = 5:1) [1]	R: ratio of 42 hour EC50 to DART-A-WT (CTL assay, Pan-T-cells and MOLM-13, E:T = 5:1) [1]	max % CytoTox at 18 hours (CTL assay, Pan-T-cells and MOLM-13, E:T = 5:1) [1]	max % CytoTox at 42 hours (CTL assay, Pan-T-cells and MOLM-13, E:T = 5:1) [1]	Kd [2]	R (KD ratio to DART-A-WT) [2]	R (ka ratio to DART-A-WT) [2]	R (kd ratio to DART-A-WT) [2]	koff [2]	kon [2]
DART-A-M23 (bispecific antibody, also called CD123 x CD3 DART-A-type diabody with CD3 mAb 1 M23) chain 1: DFVMTQSPDSLAVSLGERVTMSCKSSQSLLNSGNQKNYLTWYQQKPGQPPKLLIYWASTRESGVPDRFSGSGSGTDFTLTISSLQAEDVAVYYCQNDYSYPYTFGQGTKLEIKGGGSGGGGEVQLVESGGGLVQPGGSLRLSCAASGFTFSTYAMNWVRQAPGKGLEWVGRIRSKYNNYATYYADSVKDRFTISRDDSKNSLYLQMNSLKTEDTAVYYCVRHGNFGNSYVSWFAYWGQGTLVTVSSGGCGGGKVAALKEKVAALKEKVAALKEKVAALKE chain 2: QAVVTQEPSLTVSPGGTVTLTCRSSTGAVTTSNYANWVQQKPGQAPRGLIGGTNKRAPWTPARFSGSLLGGKAALTITGAQAEDEADYYCAEWYSNLWVFGGGTKLTVLGGGGSGGGGEVQLVQSGAELKKPGASVKVSCKASGYTFTDYYMKWVRQAPGQGLEWIGDIIPSNGATFYNQKFKGRVTITVDKSTSTAYMELSSLRSEDTAVYYCARSHLLRASWFAYWGQGTLVTVSSGGCGGGEVAALEKEVAALEKEVAALEKEVAALEK	0.421 ng/mL	0.061 ng/mL	5.3 ratio	21.6 ratio	49.3%	31.4%	26.9 nM	3.3	0.9	3	0.0124 s⁻¹	459000 M⁻¹ s⁻¹
DART-A-WT (bispecific antibody, Two-chain diabody without Fc; Kabat position 65 of the CD3 VH is D; also called CD3 Mab-1; Wild-Type) chain 1: DFVMTQSPDSLAVSLGERVTMSCKSSQSLLNSGNQKNYLTWYQQKPGQPPKLLIYWASTRESGVPDRFSGSGSGTDFTLTISSLQAEDVAVYYCQNDYSYPYTFGQGTKLEIKGGGSGGGGEVQLVESGGGLVQPGGSLRLSCAASGFTFSTYAMNWVRQAPGKGLEWVGRIRSKYNNYATYYADSVKDRFTISRDDSKNSLYLQMNSLKTEDTAVYYCVRHGNFGNSYVSWFAYWGQGTLVTVSSGGCGGGKVAALKEKVAALKEKVAALKEKVAALKE chain 2: QAVVTQEPSLTVSPGGTVTLTCRSSTGAVTTSNYANWVQQKPGQAPRGLIGGTNKRAPWTPARFSGSLLGGKAALTITGAQAEDEADYYCALWYSNLWVFGGGTKLTVLGGGGSGGGGEVQLVQSGAELKKPGASVKVSCKASGYTFTDYYMKWVRQAPGQGLEWIGDIIPSNGATFYNQKFKGRVTITVDKSTSTAYMELSSLRSEDTAVYYCARSHLLRASWFAYWGQGTLVTVSSGGCGGGEVAALEKEVAALEKEVAALEKEVAALEK	0.079 ng/mL	0.003 ng/mL	1 ratio	1 ratio	39%	29.1%	8.17 nM	1	1	1	0.00409 s⁻¹	500000 M⁻¹ s⁻¹
DART-A-M24 (bispecific antibody, also called CD123 x CD3 DART-A-type diabody with CD3 mAb 1 M24) chain 1: DFVMTQSPDSLAVSLGERVTMSCKSSQSLLNSGNQKNYLTWYQQKPGQPPKLLIYWASTRESGVPDRFSGSGSGTDFTLTISSLQAEDVAVYYCQNDYSYPYTFGQGTKLEIKGGGSGGGGEVQLVESGGGLVQPGGSLRLSCAASGFTFSTYAMNWVRQAPGKGLEWVGRIRSKYNNYATYYADSVKDRFTISRDDSKNSLYLQMNSLKTEDTAVYYCVRHGNFGNSYVSWFAYWGQGTLVTVSSGGCGGGKVAALKEKVAALKEKVAALKEKVAALKE chain 2: QAVVTQEPSLTVSPGGTVTLTCRSSTGAVTTSNYANWVQQKPGQAPRGLIGGTNKRAPWTPARFSGSLLGGKAALTITGAQAEDEADYYCAQWYSNLWVFGGGTKLTVLGGGGSGGGGEVQLVQSGAELKKPGASVKVSCKASGYTFTDYYMKWVRQAPGQGLEWIGDIIPSNGATFYNQKFKGRVTITVDKSTSTAYMELSSLRSEDTAVYYCARSHLLRASWFAYWGQGTLVTVSSGGCGGGEVAALEKEVAALEKEVAALEKEVAALEK	0.34 ng/mL	0.031 ng/mL	4.3 ratio	11.1 ratio	49.4%	31.1%	14.5 nM	1.8	1.2	2.1	0.00861 s⁻¹	594000 M⁻¹ s⁻¹
DART-A-M25 (bispecific antibody, also called CD123 x CD3 DART-A-type diabody with CD3 mAb 1 M25) chain 1: DFVMTQSPDSLAVSLGERVTMSCKSSQSLLNSGNQKNYLTWYQQKPGQPPKLLIYWASTRESGVPDRFSGSGSGTDFTLTISSLQAEDVAVYYCQNDYSYPYTFGQGTKLEIKGGGSGGGGEVQLVESGGGLVQPGGSLRLSCAASGFTFSTYAMNWVRQAPGKGLEWVGRIRSKYNNYATYYADSVKDRFTISRDDSKNSLYLQMNSLKTEDTAVYYCVRHGNFGNSYVSWFAYWGQGTLVTVSSGGCGGGKVAALKEKVAALKEKVAALKEKVAALKE chain 2: QAVVTQEPSLTVSPGGTVTLTCRSSTGAVTTSNYANWVQQKPGQAPRGLIGDTNKRAPWTPARFSGSLLGGKAALTITGAQAEDEADYYCALWYSNLWVFGGGTKLTVLGGGGSGGGGEVQLVQSGAELKKPGASVKVSCKASGYTFTDYYMKWVRQAPGQGLEWIGDIIPSNGATFYNQKFKGRVTITVDKSTSTAYMELSSLRSEDTAVYYCARSHLLRASWFAYWGQGTLVTVSSGGCGGGEVAALEKEVAALEKEVAALEKEVAALEK	0.585 ng/mL	0.1 ng/mL	7.4 ratio	35.7 ratio	46.6%	30.4%	125 nM	15	0.3	4.7	0.0192 s⁻¹	154000 M⁻¹ s⁻¹
DART-A-M26 (bispecific antibody, also called CD123 x CD3 DART-A-type diabody with CD3 mAb 1 M26) chain 1: DFVMTQSPDSLAVSLGERVTMSCKSSQSLLNSGNQKNYLTWYQQKPGQPPKLLIYWASTRESGVPDRFSGSGSGTDFTLTISSLQAEDVAVYYCQNDYSYPYTFGQGTKLEIKGGGSGGGGEVQLVESGGGLVQPGGSLRLSCAASGFTFSTYAMNWVRQAPGKGLEWVGRIRSKYNNYATYYADSVKDRFTISRDDSKNSLYLQMNSLKTEDTAVYYCVRHGNFGNSYVSWFAYWGQGTLVTVSSGGCGGGKVAALKEKVAALKEKVAALKEKVAALKE chain 2: QAVVTQEPSLTVSPGGTVTLTCRSSTGAVTTSNYANWVQQKPGQAPRGLIGGTNGRAPWTPARFSGSLLGGKAALTITGAQAEDEADYYCALWYSNLWVFGGGTKLTVLGGGGSGGGGEVQLVQSGAELKKPGASVKVSCKASGYTFTDYYMKWVRQAPGQGLEWIGDIIPSNGATFYNQKFKGRVTITVDKSTSTAYMELSSLRSEDTAVYYCARSHLLRASWFAYWGQGTLVTVSSGGCGGGEVAALEKEVAALEKEVAALEKEVAALEK	0.444 ng/mL	0.078 ng/mL	5.6 ratio	27.9 ratio	44.2%	28.2%	54.4 nM	6.7	0.6	4.3	0.0174 s⁻¹	319000 M⁻¹ s⁻¹
